Patent US12708119B2, “Methods of reducing or preventing clostridioides difficile colonization” (priority 2020, dated 2026)
Entries after “also recorded” stand apart in the source; their conditions may differ.

Tests used:
[1] = tested on: Clostridioides difficile R20291 spores; assay: Sporicidal enhancement of CotE_H2 and CDec_D1 aptamers in combination with Clinell sporicidal solution: growth / MSC (Examples 4 and 6); assay type: cell-based; details: for effect of the addition of aptamer on the sporicidal capabilities of Clinell sporicidal solution / growth of spores in the presence of aptamer alone: R20291 spores
Description: (§1) Prior to testing, CotE_H2 aptamers were diluted in nuclease free water to a concentration of 80 μM. The aptamers were folded by heating to 95° C. in a digital dry bath for 5 minutes and then immediately placed on ice and cooled to 2° C. The aptamers were stored at 2-4° C. while in use. A Clostridioides difficile SH11 bacterial spore inoculum was prepared to 1×10^7±5×10^6 CFUmL^−1 according to internal procedures. The inoculum was confirmed by serial dilution and plating out the resultant suspensions onto brain heart infusion agar supplemented with horse blood and yeast (BHI-YHT). CotE_H2 aptamers were further diluted in “TbKst” buffer to obtain 2× in-test concentrations (40, 20, 10 and 5 μM). Ten microlitres of C. difficile spores were added to 10 μL of each 2× in-test concentration of CotE_H2 aptamer. The spore suspension was pipette mixed and incubated with CotE_H2 aptamer at room temperature for one hour. The spores were then washed three times by centrifuging at 13,400 RPM for 10 minutes. In each wash the supernatant was removed, and the pellet was resuspended in 100 μL of “TbKst” buffer. Following the third wash, the spores were resuspended in 100 μL of “TbKst” buffer and vortexed to obtain a homogenous solution.
(§2) A total of six 2× in-test concentrations (1:2 dilutions) of the sporicidal test agent were prepared from the stock (100%, 50%, 25%, 12.5%, 6.25%, 3.125%). Negative and positive control solutions were also prepared. Ten microliter aliquots of each sporicidal test agent concentration or control solution were added to the wells of a 96-well plate. A 10 μL aliquot of the aptamer-spore suspension was added to each test agent or control solution and pipette mixed. The final in-test concentrations of the sporicidal test agent were 50%, 25%, 12.5%, 6.25%, 3.125%, 1.5625%. The plates were then incubated for 15 minutes at 37° C.±2° C. in an anaerobic environment. Following incubation, 50 μL of GH neutraliser was added to each well and pipette mixed. A 10 μL aliquot of neutralised suspension was taken from each well and transferred to an agar plate and incubated for 48 hours at 37° C.±2° C. in an anaerobic environment. Growth was recorded as “+” and no growth as “−”. The minimum sporicidal concentration (MSC) for each spore and aptamer concentration was identified as the lowest concentration with no growth for all replicates. […] The test was repeated without the presence of the aptamers and without the presence of the Clinell® sporicidal solution. Testing was also repeated using C. difficile ATCCR 43598™ and C. difficile R20291 spores. Testing was performed in triplicate. The method was repeated with CDec_D1 aptamers for all three strains of C. difficile spores.

[2] = tested on: Clostridioides difficile SH11 spores; assay: as above; assay type: cell-based; details: for effect of the addition of aptamer on the sporicidal capabilities of Clinell sporicidal solution / growth of spores in the presence of aptamer alone: SH11 spores
Description: as §1, §2

[3] = tested on: Clostridioides difficile ATCC® 43598™ spores; assay: as above; assay type: cell-based
Description: as §1, §2

C. difficile SH11 spores = assay: Sporicidal enhancement of CDiff_F1 aptamer in combination with Clinell sporicidal solution: growth / MSC (Example 3); assay type: cell-based, Clostridioides difficile; set-up: key to Growth observed after recovering viable spores: Growth was recorded as “+”; no growth as “−”; details: for Growth observed after recovering viable spores: aptamers only, treatment 15 minutes
Description: (§3) Prior to testing, the CDiff_F1 aptamers were diluted in nuclease free water to a concentration of 80 μM. The aptamers were folded by heating to 95° C. in a digital dry bath for 5 minutes and then immediately placed on ice and cooled to 2° C. The aptamers were stored at 2-4° C. while in use. A C. difficile SH11 bacterial spore inoculum was prepared to 1×108±5×10^7 CFUmL−1 according to internal procedures. The inoculum was confirmed by serial dilution and plating out the resultant suspensions onto brain heart infusion agar supplemented with horse blood and yeast (BHI-YHT). The CDiff_F1 aptamers were further diluted in “BB+Mg2+” buffer to obtain two times in-test concentrations ([…]). Ten microlitres of C. difficile spores were added to 10 μL of each two times in-test concentration of CDiff_F1 aptamer. The spore suspension was pipette mixed and incubated with CDiff_F1 aptamer at room temperature for one hour. The spores were then washed three times by centrifuging at 13,400 RPM for 10 minutes. In each wash the supernatant was removed, and the pellet was resuspended in 100 μL of “BB+Mg2+” buffer. Following the third wash, the spores were resuspended in 100 μL of “BB+Mg2+” buffer and vortexed to obtain a homogenous solution.
(§4) A total of six, two times in-test concentrations of each sporicidal test agent were prepared from the stock (100%, 50%, 25%, 12.5%, 6.25%, 3.125%). Negative and positive control solutions were also prepared. Ten microliter aliquots of each sporicidal test agent concentration or control solution were added to the wells of a 96-well plate. A 10 μL aliquot of the aptamer-spore suspension was added to each test agent or control solution and pipette mixed. The final in-test concentrations of each sporicidal test agent were 50%, 25%, 12.5%, 6.25%, 3.125%, 1.5625%. The plates were then incubated for 15 minutes at 37° C.±2° C. in an anaerobic environment. Following incubation, 50 μL of GH neutraliser was added to each well and pipette mixed. A 10 μL aliquot of neutralised suspension was taken from each well and transferred to an agar plate and incubated for 48 hours at 37° C.±2° C. in an anaerobic environment. Growth was recorded as “+” and no growth as “−”. The minimum sporicidal concentration (MSC) for each concentration was identified as the lowest concentration with no growth for all replicates. […] The test was repeated without the presence of the aptamers and without the presence of the Clinell® sporicidal solution. Testing was also repeated using C. difficile ATCC® 43598™ and C. difficile R20291 spores. Testing was performed in triplicate.

[4] = tested on: C. difficile ATCC® 43598™ spores; assay: as above; assay type: cell-based, Clostridioides difficile; set-up: key to Growth observed after recovering viable C. difficile ATCC 43598 spores: Growth was recorded as “+”; no growth as “−”; details: for Growth observed after recovering viable C. difficile ATCC 43598 spores: Aptamers only, treatment 15 minutes
Description: as §3, §4

[5] = tested on: C. difficile R20291 spores; assay: as above; assay type: cell-based, Clostridioides difficile; set-up: key to Growth observed after recovering viable C. difficile R20291 spores: Growth was recorded as “+”; no growth as “−”; details: for Growth observed after recovering viable C. difficile R20291 spores: Aptamers only, treatment 15 minutes
Description: as §3, §4

[6] = C. difficile R20291 spores, aptamer without Clinell sporicidal solution
[7] = any concentration of CDec_D1 aptamers without Clinell sporicidal solution
[8] = C. difficile SH11 spores, aptamer without Clinell sporicidal solution
[9] = C. difficile ATCC ® 43598 ™ spores, aptamer without Clinell sporicidal solution
[10] = any concentration of CotE_H2 aptamers without Clinell sporicidal solution

B1: CDec_D1: aptamer against CdeC, SEQ ID NO: 6; Table 4 lists fragments SEQ ID NO: 38, 39 under CdeC_D1 (nucleic acid)
DNA: CCAGTGTAGACTACTCAATGCCGTGGACTGGTCGGGTTTGGATTCGGCAGATGAATCAGTAGTACTATCCACAGGTCAACC
modifications: DNA, backbone and methylation of C not given here
MSC of CDec_D1 [1, 6]: >20 µM
effect of the addition of aptamer on the sporicidal capabilities of Clinell sporicidal solution [1]: enhanced
growth of spores in the presence of aptamer alone [1, 7]: unaffected
MSC of CDec_D1 [2, 8]: >20 µM
effect of the addition of aptamer on the sporicidal capabilities of Clinell sporicidal solution [2]: enhanced
growth of spores in the presence of aptamer alone [2, 7]: unaffected
effect of the addition of aptamer on the sporicidal capabilities of Clinell sporicidal solution ([3]; ATCC 43598 spores): enhanced
growth of spores in the presence of aptamer alone ([3]; ATCC 43598 spores, any concentration of CDec_D1 aptamers without Clinell sporicidal solution): unaffected
MSC of CDec_D1 [3, 9]: >20 µM

B2: CDiff_F1: aptamer against C.diff spores, SEQ ID NO: 1; Table 4 lists fragments SEQ ID NO: 24, 44, 45 under the same ID (nucleic acid)
DNA: CCAGTGTAGACTACTCAATGCTCTTACGATCCTCACCTGCTAGCACACCCATATCCCATGCGTACTATCCACAGGTCAACC
modifications: listed as DNA, chemistry not given here
effect of the addition of aptamer on the sporicidal capabilities of Clinell sporicidal solution (C. difficile SH11 spores; SH11 spores): enhanced
growth of spores in the presence of aptamer alone (C. difficile SH11 spores; SH11 spores, any concentration of CDiff_F1 aptamers without Clinell sporicidal solution): unaffected; also recorded: did not affect
MSC of CDiff_F1 (C. difficile SH11 spores; SH11 spores, aptamer without Clinell sporicidal solution): >20 µM
Growth observed after recovering viable spores (C. difficile SH11 spores; CDiff_F1 2.5 μM, SH11 spores): +
Growth observed after recovering viable spores (C. difficile SH11 spores; CDiff_F1 5 μM, SH11 spores): +
Growth observed after recovering viable spores (C. difficile SH11 spores; CDiff_F1 10 μM, SH11 spores): +
Growth observed after recovering viable spores (C. difficile SH11 spores; CDiff_F1 20 μM, SH11 spores): +
fold reduction in the concentration of peracetic acid required for sporicidal activity (C. difficile SH11 spores; spores of the SH11 strain, 20 μM of the aptamer): up to 4 fold
effect of the addition of aptamer on the sporicidal capabilities of Clinell sporicidal solution ([4]; ATCC 43598 spores): enhanced
growth of spores in the presence of aptamer alone ([4]; ATCC 43598 spores, any concentration of CDiff_F1 aptamers without Clinell sporicidal solution): unaffected; also recorded: did not affect
MSC of CDiff_F1 ([4]; ATCC 43598 spores, aptamer without Clinell sporicidal solution): >20 µM
Growth observed after recovering viable C. difficile ATCC 43598 spores ([4]; CDiff_F1 aptamer 2.5 μM): +
Growth observed after recovering viable C. difficile ATCC 43598 spores ([4]; CDiff_F1 aptamer 5 μM): +
Growth observed after recovering viable C. difficile ATCC 43598 spores ([4]; CDiff_F1 aptamer 10 μM): +
Growth observed after recovering viable C. difficile ATCC 43598 spores ([4]; CDiff_F1 aptamer 20 μM): +
fold reduction in the concentration of peracetic acid required for sporicidal activity ([4]; spores of the ATCC 43598 strain, after 15 minutes): up to 2 fold
Growth observed after recovering viable C. difficile R20291 spores ([5]; CDiff_F1 aptamer 2.5 μM): +
Growth observed after recovering viable C. difficile R20291 spores ([5]; CDiff_F1 aptamer 5 μM): +
Growth observed after recovering viable C. difficile R20291 spores ([5]; CDiff_F1 aptamer 10 μM): +
Growth observed after recovering viable C. difficile R20291 spores ([5]; CDiff_F1 aptamer 20 μM): +
effect of the addition of aptamer on the sporicidal capabilities of Clinell sporicidal solution ([5]; R20291 spores): enhanced
MSC of CDiff_F1 ([5]; R20291 spores, aptamer without Clinell sporicidal solution): >20 µM
growth of spores in the presence of aptamer alone ([5]; R20291 spores, only CDiff_F1 aptamers): did not affect

B3: CotE_H2: aptamer against CotE, SEQ ID NO: 11; Table 4 lists fragments SEQ ID NO: 26-30 under the same ID (nucleic acid)
DNA: CCAGTGTAGACTACTCAATGCGGCTGTGTGACTTGACCTTTGGAATGGGTGGGAGGGATGGGTACTATCCACAGGTCAACC
modifications: listed as DNA, chemistry not given here
MSC of CotE_H2 [1, 6]: >20 µM
effect of the addition of aptamer on the sporicidal capabilities of Clinell sporicidal solution [1]: enhanced
growth of spores in the presence of aptamer alone [1, 10]: unaffected
MSC of CotE_H2 [2, 8]: >20 µM
effect of the addition of aptamer on the sporicidal capabilities of Clinell sporicidal solution [2]: enhanced
growth of spores in the presence of aptamer alone [2, 10]: unaffected
growth of spores in the presence of aptamer alone ([3]; ATCC 43598 spores, any concentration of CotE_H2 aptamers without Clinell sporicidal solution): unaffected
MSC of CotE_H2 [3, 9]: >20 µM
